This note sets out measurements from PMC10287707.

One data set addresses T1, TIA1 RRM2-3 (Homo sapiens, UniProt P31483-2 93-274).
T1 sequence: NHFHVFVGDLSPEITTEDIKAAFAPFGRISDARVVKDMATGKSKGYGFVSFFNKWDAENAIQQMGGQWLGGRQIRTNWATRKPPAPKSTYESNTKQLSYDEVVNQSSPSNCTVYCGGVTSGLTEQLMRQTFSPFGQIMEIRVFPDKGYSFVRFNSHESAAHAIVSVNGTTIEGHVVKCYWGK
The data set is described as follows: EMSA; 10 mM sodium phosphate pH 6.5, 50 mM NaCl, 1 mM DTT; room temperature, 20 min; 1.2% agarose; protein 0.1-10 uM; RNA annealed in 10 mM Tris pH 7.5, 100 mM KCl. Particulars: tags: His6-SUMO (cleaved; BamHI linker Ser or Gly-Ser may stay); label: 5' Cy3.

Data set [1] concerns the target T2, TIA1 RRM2_3 (human, UniProt P31483-2 93-274).
T2 sequence: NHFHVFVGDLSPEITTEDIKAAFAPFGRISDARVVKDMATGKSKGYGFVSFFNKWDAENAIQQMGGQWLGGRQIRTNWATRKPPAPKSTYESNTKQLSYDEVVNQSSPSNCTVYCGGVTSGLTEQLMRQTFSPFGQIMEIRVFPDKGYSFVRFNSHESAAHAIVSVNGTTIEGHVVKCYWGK
The data set is described as follows: EMSA; EMSA: 10 mM sodium phosphate pH 6.5, 50 mM NaCl, 1 mM DTT, 1 U/ul SUPERase-In, room temperature 20 min, native 1.2% agarose; RNA annealed in 10 mM Tris-HCl pH 7.5, 100 mM KCl. Particulars: protein: recombinant; tags: His6-SUMO removed by SUMO protease; label: 5'-Cy3; hairpin.

The target in data set [2] is T2, TIA1 RRM2_3. The data set is described as above. As to conditions: protein: recombinant, tags: His6-SUMO removed by SUMO protease, label: 5'-Cy3, hairpin.

The molecule UGUUCUCUAAACGAACUCUAA (structured_RNA) [SL3 U77C] registered a Kd with TIA1 RRM2-3 of 1280 ± 180 nM. In the data set with TIA1 RRM2_3 [1], the binding signal was 0.29 ± 0.11 kcal/mol ddG vs WT SL3.

With UGUUCCCCCCCCGAACUUUAA (structured_RNA) [SL3-HP-C7], the Kd in the data set with TIA1 RRM2_3 [2] stood at 1950 ± 440 nM.

As for UGUUCUAAGAACUUUAA (structured_RNA) [SL3-HP3], the Kd in the data set with TIA1 RRM2_3 [2] (3-nt loop) is 3870 ± 1060 nM.

Take UGUUCUCUAAACGAACUUCAA (structured_RNA) [SL3 U78C]: the Kd with TIA1 RRM2-3 and with TIA1 RRM2_3 [2] was 1340 ± 190 nM each time.

UGUUCUCUAAACGAACUUAAA (structured_RNA) [SL3 U78A] came in with a Kd with TIA1 RRM2-3 of 7540 ± 2120 nM. The binding signal in the data set with TIA1 RRM2_3 [1] worked out at 1.34 ± 0.19 kcal/mol ddG vs WT SL3.

UGUUCUCUUAACGAACUUUAA (structured_RNA) [SL3 A68U]: the equilibrium dissociation constant (Kd) with TIA1 RRM2_3 [2] worked out at 460 ± 50 nM.

UGUUCUCUAAACGAACCCCAA (structured_RNA) [SL3-TL-C3] came in with a Kd with TIA1 RRM2-3 of 2220 ± 360 nM.

On to UGUUCUCCAAACGAACUUUAA (structured_RNA) [SL3 U67C], for which binding with TIA1 RRM2-3 was put at a Kd of 3340 ± 1040 nM. Moreover, in the data set with TIA1 RRM2_3 [1], the binding signal is 0.85 ± 0.21 kcal/mol ddG vs WT SL3.

Molecule UGUUCUCUAAACGAACUAUAA (structured_RNA) [SL3 U77A] displayed a Kd with TIA1 RRM2-3 of 4660 ± 1540 nM. The binding signal with TIA1 RRM2_3 [1] came out at 1.05 ± 0.2 kcal/mol ddG vs WT SL3.

In turn, UGUUCUCUAAACGAACGGGAA (structured_RNA) [SL3-TL-G3] had a Kd in the data set with TIA1 RRM2-3 of 2770 ± 630 nM.

As for UGUUCUCUACACGAACUUUAA (structured_RNA) [SL3 A69C], the equilibrium dissociation constant (Kd) with TIA1 RRM2_3 [2] amounted to 420 ± 40 nM.

UGGGCUCUAAACGCCCUUUAA (structured_RNA) [SL3-GC]: the equilibrium dissociation constant (Kd) with TIA1 RRM2_3 [2] worked out at 5650 ± 1700 nM.

In the case of UGUUCUCUGAACGAACUUUAA (structured_RNA) [SL3 A68G], the Kd with TIA1 RRM2-3 was determined as 900 ± 110 nM. Also, in the data set with TIA1 RRM2_3 [1], the binding signal came out at 0.09 ± 0.1 kcal/mol ddG vs WT SL3.

Consider UGUUCUCUAAACGAACU (structured_RNA) [SL3-TL1], for which, in the data set with TIA1 RRM2_3 [2] (1-nt 3' tail), the Kd was 2860 ± 550 nM.

For the molecule UGUUCUCUAAACGAACUGUAA (structured_RNA) [SL3 U77G], the dissociation constant Kd with TIA1 RRM2-3 is 5770 ± 1460 nM. For the same molecule, in the data set with TIA1 RRM2_3 [1], the binding signal turned out to be 1.18 ± 0.17 kcal/mol ddG vs WT SL3.

Turning to UGUUCUCUAAACGAACAUUAA (structured_RNA) [SL3 U76A], binding in the data set with TIA1 RRM2-3 was characterised by a dissociation constant (Kd) of 6160 ± 1850 nM. Also, the binding signal with TIA1 RRM2_3 [1] worked out at 1.22 ± 0.2 kcal/mol ddG vs WT SL3.

UGUUCUCUAAACGAACGUUAA (structured_RNA) [SL3 U76G] gave a dissociation constant Kd with TIA1 RRM2-3 of 3870 ± 1250 nM. In addition, in the data set with TIA1 RRM2_3 [1], the binding signal came to 0.94 ± 0.21 kcal/mol ddG vs WT SL3.

Take UGUUCUCUCAACGAACUUUAA (structured_RNA) [SL3 A68C]: in the data set with TIA1 RRM2-3, the Kd came out at 730 ± 80 nM. In addition, in the data set with TIA1 RRM2_3 [1], the binding signal is -0.04 ± 0.1 kcal/mol ddG vs WT SL3.

In the case of UGUUCUUUUUUUGAACUUUAA (structured_RNA) [SL3-HP-U7], the Kd with TIA1 RRM2_3 [2] turned out to be 540 ± 30 nM.
